From IntAct's records for PubMed 31515488

B1: "Delta(3,5)-Delta(2,4)-dienoyl-CoA isomerase, mitochondrial" (Homo sapiens), Q13011 (parent)
chain: MAAGIVASRRLRDLLTRRLTGSNYPGLSISLRLTGSSAQEEASGVALGEAPDHSYESLRVTSAQKHVLHVQLNRPNKRNAMNKVFWREMVECFNKISRDADCRAVVISGAGKMFTAGIDLMDMASDILQPKGDDVARISWYLRDIITRYQETFNVIERCPKPVIAAVHGGCIGGGVDLVTACDIRYCAQDAFFQVKEVDVGLAADVGTLQRLPKVIGNQSLVNELAFTARKMMADEALGSGLVSRVFPDKEVMLDAALALAAEISSKSPVAVQSTKVNLLYSRDHSVAESLNYVASWNMSMLQTQDLVKSVQATTENKELKTVTFSKL
B2: Transcription factor 12 (Homo sapiens), Q99081 (parent)
chain: MNPQQQRMAAIGTDKELSDLLDFSAMFSPPVNSGKTRPTTLGSSQFSGSGIDERGGTTSWGTSGQPSPSYDSSRGFTDSPHYSDHLNDSRLGAHEGLSPTPFMNSNLMGKTSERGSFSLYSRDTGLPGCQSSLLRQDLGLGSPAQLSSSGKPGTAYYSFSATSSRRRPLHDSAALDPLQAKKVRKVPPGLPSSVYAPSPNSDDFNRESPSYPSPKPPTSMFASTFFMQDGTHNSSDLWSSSNGMSQPGFGGILGTSTSHMSQSSSYGNLHSHDRLSYPPHSVSPTDINTSLPPMSSFHRGSTSSSPYVAASHTPPINGSDSILGTRGNAAGSSQTGDALGKALASIYSPDHTSSSFPSNPSTPVGSPSPLTGTSQWPRPGGQAPSSPSYENSLHSLQSRMEDRLDRLDDAIHVLRNHAVGPSTSLPAGHSDIHSLLGPSHNAPIGSLNSNYGGSSLVASSRSASMVGTHREDSVSLNGNHSVLSSTVTTSSTDLNHKTQENYRGGLQSQSGTVVTTEIKTENKEKDENLHEPPSSDDMKSDDESSQKDIKVSSRGRTSSTNEDEDLNPEQKIEREKERRMANNARERLRVRDINEAFKELGRMCQLHLKSEKPQTKLLILHQAVAVILSLEQQVRERNLNPKAACLKRREEEKVSAVSAEPPTTLPGTHPGLSETTNPMGHM
partner: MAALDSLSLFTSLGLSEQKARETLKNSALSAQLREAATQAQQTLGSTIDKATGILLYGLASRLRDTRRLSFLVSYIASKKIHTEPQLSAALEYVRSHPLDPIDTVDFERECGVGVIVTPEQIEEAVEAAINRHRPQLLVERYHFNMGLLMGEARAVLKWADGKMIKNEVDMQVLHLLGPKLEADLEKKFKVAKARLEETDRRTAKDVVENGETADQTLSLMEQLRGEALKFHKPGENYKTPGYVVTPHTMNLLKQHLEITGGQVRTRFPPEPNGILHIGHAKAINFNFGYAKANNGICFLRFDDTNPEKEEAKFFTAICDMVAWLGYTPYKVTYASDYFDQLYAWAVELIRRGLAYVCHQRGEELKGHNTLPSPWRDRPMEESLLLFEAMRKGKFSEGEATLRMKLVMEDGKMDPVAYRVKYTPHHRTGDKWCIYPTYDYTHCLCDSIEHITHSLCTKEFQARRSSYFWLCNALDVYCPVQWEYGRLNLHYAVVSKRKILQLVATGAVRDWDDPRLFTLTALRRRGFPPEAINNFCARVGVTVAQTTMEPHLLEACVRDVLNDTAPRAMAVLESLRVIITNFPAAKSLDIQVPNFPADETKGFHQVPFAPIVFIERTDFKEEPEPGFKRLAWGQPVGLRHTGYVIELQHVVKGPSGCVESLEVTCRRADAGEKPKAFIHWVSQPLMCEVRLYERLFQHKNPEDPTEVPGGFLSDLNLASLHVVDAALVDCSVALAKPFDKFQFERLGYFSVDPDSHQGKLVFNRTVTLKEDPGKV
B3: Aflatoxin B1 aldehyde reductase member 2 (Homo sapiens), O43488 (parent)
chain: MLSAASRVVSRAAVHCALRSPPPEARALAMSRPPPPRVASVLGTMEMGRRMDAPASAAAVRAFLERGHTELDTAFMYSDGQSETILGGLGLGLGGGDCRVKIATKANPWDGKSLKPDSVRSQLETSLKRLQCPQVDLFYLHAPDHGTPVEETLHACQRLHQEGKFVELGLSNYASWEVAEICTLCKSNGWILPTVYQGMYNATTRQVETELFPCLRHFGLRFYAYNPLAGGLLTGKYKYEDKDGKQPVGRFFGNSWAETYRNRFWKEHHFEAIALVEKALQAAYGASAPSVTSAALRWMYHHSQLQGAHGDAVILGMSSLEQLEQNLAATEEGPLEPAVVDAFNQAWHLVAHECPNYFR
B4: Zinc finger CCHC domain-containing protein 10 (Homo sapiens), Q8TBK6 (parent)
chain: MATPMHRLIARRQAFDTELQPVKTFWILIQPSIVISEANKQHVRCQKCLEFGHWTYECTGKRKYLHRPSRTAELKKALKEKENRLLLQQSIGETNVERKAKKKRSKSVTSSSSSSSDSSASDSSSESEETSTSSSSEDSDTDESSSSSSSSASSTTSSSSSDSDSDSSSSSSSSTSTDSSSDDEPPKKKKKK
B5: Transcription factor 12 (Homo sapiens), Q99081-3 (parent)
chain: MNPQQQRMAAIGTDKELSDLLDFSAMFSPPVNSGKTRPTTLGSSQFSGSGIDERGGTTSWGTSGQPSPSYDSSRGFTDSPHYSDHLNDSRLGAHEGLSPTPFMNSNLMGKTSERGSFSLYSRDTGLPGCQSSLLRQDLGLGSPAQLSSSGKPGTAYYSFSATSSRRRPLHDSAALDPLQAKKVRKVPPGLPSSVYAPSPNSDDFNRESPSYPSPKPPTSMFASTFFMQDGTHNSSDLWSSSNGMSQPGFGGILGTSTSHMSQSSSYGNLHSHDRLSYPPHSVSPTDINTSLPPMSSFHRGSTSSSPYVAASHTPPINGSDSILGTRGNAAGSSQTGDALGKALASIYSPDHTSSSFPSNPSTPVGSPSPLTGTSQWPRPGGQAPSSPSYENSLHSLKNRVEQQLHEHLQDAMSFLKDVCEQSRMEDRLDRLDDAIHVLRNHAVGPSTSLPAGHSDIHSLLGPSHNAPIGSLNSNYGGSSLVASSRSASMVGTHREDSVSLNGNHSVLSSTVTTSSTDLNHKTQENYRGGLQSQSGTVVTTEIKTENKEKDENLHEPPSSDDMKSDDESSQKDIKVSSRGRTSSTNEDEDLNPEQKIEREKERRMANNARERLRVRDINEAFKELGRMCQLHLKSEKPQTKLLILHQAVAVILSLEQQVRERNLNPKAACLKRREEEKVSAVSAEPPTTLPGTHPGLSETTNPMGHM
partner: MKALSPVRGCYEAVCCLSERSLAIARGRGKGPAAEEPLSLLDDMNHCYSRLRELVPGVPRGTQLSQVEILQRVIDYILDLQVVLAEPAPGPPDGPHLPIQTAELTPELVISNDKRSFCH

Variants of: B1
Settings: with traf1_human TRAF1, Q13077
Chain of traf1_human TRAF1, Q13077 (Q13077 whole entry): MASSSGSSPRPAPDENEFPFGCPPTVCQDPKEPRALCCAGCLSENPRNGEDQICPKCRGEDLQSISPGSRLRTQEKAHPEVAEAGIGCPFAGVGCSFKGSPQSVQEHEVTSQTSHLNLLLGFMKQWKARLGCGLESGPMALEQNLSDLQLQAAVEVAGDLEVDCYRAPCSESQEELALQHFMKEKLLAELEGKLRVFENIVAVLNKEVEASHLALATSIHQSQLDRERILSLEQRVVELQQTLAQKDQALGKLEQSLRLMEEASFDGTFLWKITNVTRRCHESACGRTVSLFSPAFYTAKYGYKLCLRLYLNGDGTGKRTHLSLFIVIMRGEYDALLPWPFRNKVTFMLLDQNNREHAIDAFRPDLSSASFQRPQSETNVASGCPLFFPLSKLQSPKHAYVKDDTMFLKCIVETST
In the case of E41A, the “effect of a mutation on the interaction” value is reported as “with no effect”.

Variants of: B2
Settings: with syq_human QARS1, P47897
For L483R, the “effect of a mutation on the interaction” value was “with no effect”.
With I11M the “effect of a mutation on the interaction” value was “with no effect”.
D565V was tested, and the “effect of a mutation on the interaction” value was “with no effect”.
For G300S, the “effect of a mutation on the interaction” value was “with no effect”.
With N479S the “effect of a mutation on the interaction” value was “with no effect”.
In the case of A458V, the “effect of a mutation on the interaction” value is reported as “with no effect”.

Variants of: B3
Settings: with ark73_human AKR7A3, O95154
Chain of ark73_human AKR7A3, O95154 (O95154 whole entry): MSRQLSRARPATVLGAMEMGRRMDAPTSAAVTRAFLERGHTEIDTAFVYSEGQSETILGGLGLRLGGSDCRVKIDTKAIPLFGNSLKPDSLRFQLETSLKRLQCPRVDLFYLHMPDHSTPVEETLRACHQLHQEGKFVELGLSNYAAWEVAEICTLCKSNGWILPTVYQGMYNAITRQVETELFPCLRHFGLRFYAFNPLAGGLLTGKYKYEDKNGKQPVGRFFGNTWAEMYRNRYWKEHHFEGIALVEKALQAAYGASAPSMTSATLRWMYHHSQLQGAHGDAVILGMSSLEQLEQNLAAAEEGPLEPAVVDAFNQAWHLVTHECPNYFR
A142T was tested, and the “effect of a mutation on the interaction” value was “disrupting interaction strength”.

Variants of: B3
Settings: with cep70_human CEP70, Q8NHQ1
Target sequence in this assay (Q8NHQ1 whole entry): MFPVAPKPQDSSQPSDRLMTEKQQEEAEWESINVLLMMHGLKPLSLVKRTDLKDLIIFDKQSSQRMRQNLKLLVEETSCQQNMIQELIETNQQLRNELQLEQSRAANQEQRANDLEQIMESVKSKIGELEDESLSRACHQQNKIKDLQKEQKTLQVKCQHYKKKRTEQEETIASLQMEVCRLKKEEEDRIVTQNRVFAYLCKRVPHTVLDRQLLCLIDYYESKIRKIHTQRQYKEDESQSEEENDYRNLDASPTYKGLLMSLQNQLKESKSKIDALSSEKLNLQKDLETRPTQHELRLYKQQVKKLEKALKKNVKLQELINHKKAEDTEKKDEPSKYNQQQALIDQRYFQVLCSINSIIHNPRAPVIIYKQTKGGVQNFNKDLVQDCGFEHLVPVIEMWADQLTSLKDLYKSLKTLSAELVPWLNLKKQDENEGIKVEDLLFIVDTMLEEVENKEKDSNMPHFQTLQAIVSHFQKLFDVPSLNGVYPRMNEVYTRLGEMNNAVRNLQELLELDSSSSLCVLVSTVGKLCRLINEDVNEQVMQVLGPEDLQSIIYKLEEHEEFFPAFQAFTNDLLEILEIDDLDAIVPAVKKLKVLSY
A142T was tested, and the “effect of a mutation on the interaction” value was “disrupting interaction strength”.

Variants of: B4
Settings: with cep70_human CEP70, Q8NHQ1
Target sequence in this assay (Q8NHQ1 whole entry): as above
For S153P, the “effect of a mutation on the interaction” value was “with no effect”.

Variants of: B4
Settings: with dzip3_human DZIP3, Q86Y13
Chain of dzip3_human DZIP3, Q86Y13 (Q86Y13 whole entry): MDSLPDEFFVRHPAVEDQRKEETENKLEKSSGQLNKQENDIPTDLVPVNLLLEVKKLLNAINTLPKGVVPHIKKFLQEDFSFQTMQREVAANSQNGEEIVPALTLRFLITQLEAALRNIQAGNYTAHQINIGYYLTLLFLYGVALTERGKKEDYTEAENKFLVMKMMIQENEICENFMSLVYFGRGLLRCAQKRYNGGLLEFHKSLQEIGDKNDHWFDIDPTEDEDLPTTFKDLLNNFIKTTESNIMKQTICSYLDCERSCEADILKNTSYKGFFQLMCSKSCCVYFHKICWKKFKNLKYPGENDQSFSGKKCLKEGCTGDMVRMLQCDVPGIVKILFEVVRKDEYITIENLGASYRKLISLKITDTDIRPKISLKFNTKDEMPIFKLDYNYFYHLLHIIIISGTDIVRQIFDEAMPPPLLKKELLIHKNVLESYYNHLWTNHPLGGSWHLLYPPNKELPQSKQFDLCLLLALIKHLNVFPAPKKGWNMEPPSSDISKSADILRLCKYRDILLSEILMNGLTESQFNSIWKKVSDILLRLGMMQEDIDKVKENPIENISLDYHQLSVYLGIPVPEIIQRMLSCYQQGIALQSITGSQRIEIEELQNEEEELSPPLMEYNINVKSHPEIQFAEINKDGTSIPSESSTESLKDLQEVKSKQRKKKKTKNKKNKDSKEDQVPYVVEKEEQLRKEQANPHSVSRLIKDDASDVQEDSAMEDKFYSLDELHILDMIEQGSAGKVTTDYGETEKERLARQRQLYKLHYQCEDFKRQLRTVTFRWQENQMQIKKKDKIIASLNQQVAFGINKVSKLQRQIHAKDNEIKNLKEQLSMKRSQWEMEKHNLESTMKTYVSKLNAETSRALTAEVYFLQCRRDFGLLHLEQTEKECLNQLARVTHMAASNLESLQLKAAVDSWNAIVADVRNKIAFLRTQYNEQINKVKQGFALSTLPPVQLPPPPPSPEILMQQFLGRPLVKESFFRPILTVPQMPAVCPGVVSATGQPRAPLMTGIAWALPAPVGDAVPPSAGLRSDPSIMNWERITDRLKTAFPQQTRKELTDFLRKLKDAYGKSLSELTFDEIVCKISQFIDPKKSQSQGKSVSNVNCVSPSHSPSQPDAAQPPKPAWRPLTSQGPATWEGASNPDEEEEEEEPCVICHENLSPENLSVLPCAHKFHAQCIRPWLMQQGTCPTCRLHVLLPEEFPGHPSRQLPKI
For S153P, the “effect of a mutation on the interaction” value was “with no effect”.

Variants of: B5
Settings: with id3_human ID3, Q02535
R74G was tested, and the “effect of a mutation on the interaction” value was “with no effect”.
